# Measured values taken from the supplement of paper PMC6757056.
# ± gives the standard deviation of the averaged measurements.
# B1: library; a variant is named by its letters at N, in order (parent)
# chain: GCUGUCACCGGUGUAUUACCCUAGUGGUCGACCGGUCUGAUGAGUCUNNNNNNAGACGAAACAGC
# Assays:
# [1] = variants of: B1; experiment: normalized RNA/DNA level with ligand (relative to sTRSVctl = 100) (log10 (% of sTRSVctl)); ligand: hypoxanthine (xanthine aptamer); higher = less ribozyme self-cleavage, higher mRNA level; details: ligand concentration (+) RNA-Seq: 5 mM, HEK293T, reporter: mCherry (pCS4076), ligand present: yes
# Method in brief: (§1)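 Ribozyme switch library plasmids with mCherry reporters (eGFP in certain ligand experiments) went into HEK293T cells at 4 µg per 6-well well. Where ligand was used, it was applied 1 h before transfection, and total RNA was extracted with EDTA 72 h later for reverse transcription, amplification, barcoding and sequencing. RNA level is the RNA-to-DNA read ratio normalized to a spiked-in non-cleaving sequence or to the leading sequences, then scaled and log-transformed. Scaling was ×100 with log10, the leading set comprised 25 sequences, and the cutoff was ≥100 DNA reads.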
# [2] = variants of: B1; experiment: normalized RNA/DNA level without ligand (relative to sTRSVctl = 100) (log10 (% of sTRSVctl)); ligand: hypoxanthine (xanthine aptamer); higher = less ribozyme self-cleavage, higher mRNA level; details: HEK293T, reporter: mCherry (pCS4076), ligand present: no
# Method in brief: as §1
Variant,normalized RNA/DNA level with ligand (log10) [1],normalized RNA/DNA level without ligand (log10) [2]
ACUUUA,1.903 ± 0.015,1.82 ± 0.067
ACUUUU,1.92 ± 0.044,1.868 ± 0.012
ACUUUC,1.98 ± 0.046,1.95 ± 0.044
ACUUUG,1.91 ± 0.043,1.57 ± 0.021
ACUGGC,1.96 ± 0.036,1.844 ± 0.016
ACUGGG,1.859 ± 0.0034,1.44 ± 0.086
CCUGAU,1.909 ± 0.004,1.821 ± 0.013
CCUGAA,1.98 ± 0.078,1.78 ± 0.075
CCUGAC,1.92 ± 0.1,1.83 ± 0.035
AGAGUG,1.82 ± 0.047,1.331 ± 0.0048
AGAGUC,1.937 ± 0.017,1.8831 ± 0.0015
GGAACC,1.957 ± 0.0033,1.86 ± 0.021
GGAACU,1.93 ± 0.031,1.9403 ± 0.00023
GGAACA,1.942 ± 0.0069,1.764 ± 0.0065
GGACGC,1.86 ± 0.044,1.49 ± 0.12
GGACGU,1.887 ± 0.013,1.814 ± 0.0056
ACUCGU,1.95 ± 0.033,1.89 ± 0.025
ACUCGC,1.99 ± 0.041,1.93 ± 0.032
AGACGC,1.923 ± 0.0088,1.69 ± 0.044
UCUUUC,2.01 ± 0.052,1.99 ± 0.068

Variant,normalized RNA/DNA level with ligand (log10) [1],normalized RNA/DNA level without ligand (log10) [2]
UCUUUU,1.95 ± 0.086,1.947 ± 0.0056
UCUUUG,1.95 ± 0.033,1.73 ± 0.043
GCUUCA,1.966 ± 0.0076,1.898 ± 0.011
GCUUCC,1.963 ± 0.0026,1.833 ± 0.012
GCUUCU,1.996 ± 0.0049,1.94 ± 0.058
GCUGAC,1.9 ± 0.034,1.63 ± 0.034
GCUGAG,1.85 ± 0.083,1.347 ± 0.012
UCUGAG,1.927 ± 0.0088,1.58 ± 0.035
UCUGAU,1.94 ± 0.066,1.77 ± 0.096
UCUGAC,1.99 ± 0.031,1.8115 ± 0.00067
UGACUG,1.912 ± 0.0096,1.77 ± 0.043
UGACUU,1.913 ± 0.0093,1.89 ± 0.03
GGAGAU,1.93 ± 0.038,1.72 ± 0.024
GCUCUU,1.97 ± 0.052,1.91 ± 0.037
GCUCUC,1.98 ± 0.021,1.89 ± 0.079
GCUCUA,1.941 ± 0.0064,1.79 ± 0.035
CCUCCA,1.94 ± 0.026,1.95 ± 0.067
CCUCCU,1.95 ± 0.074,1.96 ± 0.026
GCUUGC,1.96 ± 0.033,1.87 ± 0.048
GCUUGU,1.93 ± 0.0067,1.72 ± 0.023

Variant,normalized RNA/DNA level with ligand (log10) [1],normalized RNA/DNA level without ligand (log10) [2]
AGACCG,1.925 ± 0.004,1.75 ± 0.067
AGACCA,1.93 ± 0.046,1.85 ± 0.015
AGACCU,1.92 ± 0.023,1.88 ± 0.044
GGAGGG,1.883 ± 0.018,1.493 ± 0.0022
GGAGGC,1.82 ± 0.08,1.37 ± 0.057
CCUCUU,2.011 ± 0.018,1.9823 ± 0.00045
CCUCUG,1.96 ± 0.038,1.98 ± 0.035
CCUCUA,1.98 ± 0.05,1.926 ± 0.015
GGACAG,1.85 ± 0.055,1.468 ± 0.0059
GGACAU,1.886 ± 0.0069,1.8 ± 0.038
UGACGC,1.96 ± 0.045,1.83 ± 0.038
UGACCU,2.004 ± 0.012,1.92 ± 0.021
UGACCC,2.002 ± 0.0071,1.94 ± 0.024
UGACCA,1.93 ± 0.058,1.886 ± 0.0032
UGACCG,1.96 ± 0.094,1.79 ± 0.046
GCUGGA,1.904 ± 0.011,1.8 ± 0.074
GCUGGU,1.96 ± 0.034,1.824 ± 0.013
CGAGCC,1.94 ± 0.11,1.852 ± 0.0083
